Data published in publication doi:10.1101/2022.06.14.496074 (bioRxiv, 2022).

Experiments:
TolC = molecular target: T1, TolC (E. coli, UniProt P02930 23-493); assay: single-channel electrophysiology
T1 sequence: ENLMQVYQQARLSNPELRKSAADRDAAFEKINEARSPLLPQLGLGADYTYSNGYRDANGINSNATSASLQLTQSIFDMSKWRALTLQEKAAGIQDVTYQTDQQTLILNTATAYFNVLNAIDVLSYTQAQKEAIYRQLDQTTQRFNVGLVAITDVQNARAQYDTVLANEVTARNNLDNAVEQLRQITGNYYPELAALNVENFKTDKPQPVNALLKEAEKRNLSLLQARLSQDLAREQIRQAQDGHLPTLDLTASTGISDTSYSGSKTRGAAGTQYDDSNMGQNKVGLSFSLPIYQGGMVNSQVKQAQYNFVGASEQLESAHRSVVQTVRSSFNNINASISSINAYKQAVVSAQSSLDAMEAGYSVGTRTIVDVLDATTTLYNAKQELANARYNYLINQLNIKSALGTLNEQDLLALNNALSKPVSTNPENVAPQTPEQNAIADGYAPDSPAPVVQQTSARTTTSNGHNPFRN

[1] = molecular target: T2, AcrA (E. coli (K12 derived strain)), P0AE06; assay: SEC; settings: remark: other sources report otherwise
T2 chain: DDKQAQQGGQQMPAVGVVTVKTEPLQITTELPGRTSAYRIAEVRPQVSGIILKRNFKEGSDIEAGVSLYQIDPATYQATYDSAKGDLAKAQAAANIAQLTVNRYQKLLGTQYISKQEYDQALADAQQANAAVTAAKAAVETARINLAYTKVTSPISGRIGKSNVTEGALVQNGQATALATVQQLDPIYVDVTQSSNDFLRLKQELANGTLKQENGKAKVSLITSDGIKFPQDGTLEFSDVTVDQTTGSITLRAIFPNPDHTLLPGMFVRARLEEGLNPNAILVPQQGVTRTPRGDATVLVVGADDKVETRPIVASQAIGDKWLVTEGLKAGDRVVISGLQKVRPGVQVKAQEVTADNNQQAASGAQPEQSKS

B1: AcrA (natural protein)
chain: T2 chain
With B1 the binding result (TolC) was “binds” and the stoichiometry N [1] was 2.
